{
  "source": "patent US20040266694A1",
  "about": "(published 2004)",
  "key": {"[1]": {"target": "T1, Recombinant human Flt-1/Fc chimera (R&D Systems) (human, UniProt P17948-2 27-687, limits assumed)", "T1 sequence (P17948 other isoform, or with tags, fused parts or gaps mutant limits assumed)": "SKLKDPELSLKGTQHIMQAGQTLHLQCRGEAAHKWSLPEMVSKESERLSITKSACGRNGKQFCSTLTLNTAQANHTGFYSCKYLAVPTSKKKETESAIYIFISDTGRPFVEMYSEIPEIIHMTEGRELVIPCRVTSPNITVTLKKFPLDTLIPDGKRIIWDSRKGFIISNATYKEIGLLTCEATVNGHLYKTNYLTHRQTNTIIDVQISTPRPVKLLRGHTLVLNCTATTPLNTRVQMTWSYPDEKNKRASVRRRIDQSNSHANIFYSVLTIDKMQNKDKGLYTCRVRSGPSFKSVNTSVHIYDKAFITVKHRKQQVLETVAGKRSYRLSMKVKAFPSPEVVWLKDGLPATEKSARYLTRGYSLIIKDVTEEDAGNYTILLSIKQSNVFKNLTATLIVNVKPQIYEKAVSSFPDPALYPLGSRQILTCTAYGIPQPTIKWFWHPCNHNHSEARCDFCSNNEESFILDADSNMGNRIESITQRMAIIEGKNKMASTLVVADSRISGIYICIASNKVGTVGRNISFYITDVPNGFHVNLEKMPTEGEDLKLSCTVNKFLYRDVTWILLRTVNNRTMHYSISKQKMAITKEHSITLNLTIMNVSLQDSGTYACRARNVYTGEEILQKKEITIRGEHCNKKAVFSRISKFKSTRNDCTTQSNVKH", "assay": "phage ELISA on Flt-1/Fc captured by anti-Fc, anti-M13-HRP"}, "[2]": {"target": "T1, Recombinant human Flt-1/Fc chimera (R&D …)", "assay": "competitive receptor binding assay on immobilized Flt-1/Fc; VEGF against 30 µM fluorescein labeled peptide (SEQ ID NO: 3)", "procedure": "The cocktails were allowed to equilibrate for 4 hours at room temperature. After incubation, micrititer plates were washed with buffer B for 10 times. […] The results are represented as average of triplicate measurement ±SD."}, "[3]": {"target": "T1, Recombinant human Flt-1/Fc chimera (R&D …)", "assay": "receptor binding assay on immobilized Flt-1/Fc; reference: the peptide"}, "[4]": {"target": "T1, Recombinant human Flt-1/Fc chimera (R&D …)", "assay": "receptor binding assay on immobilized Flt-1/Fc, bound peroxidase activity"}},
  "data": [
    {"binder": "phage clone V5.10 (control peptide insert encoded by ONV5.10, SEQ ID NO: 10) (other, bacteriophage M13, Clone label V5.10 tied to oligonucleotide ONV5.10 by its name only) PEPEVRLSPPGHIQSLAETVESCLAKPHTENSFTNVWKDDKTLDRYANYEGCLWNATGVVVCTGDETQCYGTWVPIGLAIPENEGGGSEGGGSEGGGSEGGGTKPPEYGDTPIPGYTYINPLDGTYPPGTEQNPANPNPSLEESQPLNTFMFQNNRFRNRQGALTVYTGTVTQGTDPVKTYYQYTPVSSKAMYDAYWNGKFRDCAFHSGFNEDPFVCEYQGQSSDLPQPPVNAGGGSGGGSGGGSEGGGSEGGGSEGGGSEGGGSGGGSGSGDFDYEKMANANKGAMTENADENALQSDAKGKLDSVATDYGAAIDGFIGDVSGLANGNGATGDFAGSNSQMAQVGDGDNSPLMNNFRQYLPSLPQSVECRPFVFSAGKPYEFSIDCDKINLFRGVFAFLLYVATFMYVFSTFANILRNKES", "values": [
      {"measurement": "ABSORBANCE, A 405", "setting": "[1]", "result": 0.039, "unit": "A405"}
    ]},
    {"binder": "phage clone V40 (control peptide insert encoded by ONV40, SEQ ID NO: 11) (other, bacteriophage M13, Clone label V40 tied to oligonucleotide ONV40 by its name only) FVGGWLVPEDERLYPEAETVESCLAKPHTENSFTNVWKDDKTLDRYANYEGCLWNATGVVVCTGDETQCYGTWVPIGLAIPENEGGGSEGGGSEGGGSEGGGTKPPEYGDTPIPGYTYINPLDGTYPPGTEQNPANPNPSLEESQPLNTFMFQNNRFRNRQGALTVYTGTVTQGTDPVKTYYQYTPVSSKAMYDAYWNGKFRDCAFHSGFNEDPFVCEYQGQSSDLPQPPVNAGGGSGGGSGGGSEGGGSEGGGSEGGGSEGGGSGGGSGSGDFDYEKMANANKGAMTENADENALQSDAKGKLDSVATDYGAAIDGFIGDVSGLANGNGATGDFAGSNSQMAQVGDGDNSPLMNNFRQYLPSLPQSVECRPFVFSAGKPYEFSIDCDKINLFRGVFAFLLYVATFMYVFSTFANILRNKES", "values": [
      {"measurement": "ABSORBANCE, A 405", "setting": "[1]", "result": 0.025, "unit": "A405"}
    ]},
    {"binder": "human recombinant VEGF (R&D Systems) (ligand, UniProt P15692-4 27-191, looked up, also called vascular endothelial factor) APMAEGGGQNHHEVVKFMDVYQRSYCHPIETLVDIFQEYPDEIEYIFKPSCVPLMRCGGCCNDEGLECVPTEESNITMQIMRIKPHQGQHIGEMSFLQHNKCECRPKKDRARQENPCGPCSERRKHLFVQDPQTCKCSCKNTDSRCKARQLELNERTCRCDKPRR", "values": [
      {"measurement": "IC50", "setting": "[2]", "result": 5, "unit": "nM"}
    ]},
    {"binder": "Conjugate NO.: 1, peroxidase-peptide conjugate (other, horseradish, C-terminal amide (NH2); Cys 1 disulfide-linked through SPDP to peroxidase; activated with SPDP (N-succinimidyl-3-(2-pyridylthio)propionate), disulfide-linked to the peptide, also called Conjugate ID NO:1; Conjuguate ID NO 1) QLTPTFYDNSCPNVSNIVRDTIVNELRSDPRIAASILRLHFHDCFVNGCDASILLDNTTSFRTEKDAFGNANSARGFPVIDRMKAAVESACPRTVSCADLLTIAAQQSVTLAGGPSWRVPLGRRDSLQAFLDLANANLPAPFFTLPQLKDSFRNVGLNRSSDLVALSGGHTFGKNQCRFIMDRLYNFSNTGLPDPTLNTTYLQTLRGLCPLNGNLSALVDFDLRTPTIFDNKYYVNLEEQKGLIQSDQELFSSPNATDTIPLVRSFANSTQTFFNAFVEAMDRMGNITPLTGTQGQIRLNCRVVNSNS peptide: CNGYEIEWYSWVTHGMY", "values": [
      {"measurement": "fold of half-maximum binding concentration against the peptide", "setting": "[3]", "result": 50, "unit": "fold"},
      {"measurement": "EC50", "setting": "[4]", "result": 100, "unit": "nM"}
    ]}
  ]
}
